The text below walks through data of PMC10397247.

Experiment [1] concerns the target T1, P2-AA-1HAA-D.
T1 chain: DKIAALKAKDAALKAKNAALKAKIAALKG
Put plainly: two-hybrid library CCmax.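 Note: natural log of median RNA to DNA barcode read ratio; higher means stronger binding.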 Conditions: mean of both orientations.

The target in experiment [2] is T2, P2-AA-1HAA-E.
T2 chain: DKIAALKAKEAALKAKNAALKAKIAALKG
Put plainly: two-hybrid library CCmax.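 Note: natural log of median RNA to DNA barcode read ratio; higher means stronger binding.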 The settings on record: mean of both orientations.

In experiment [3] the target is T3, P2-AA-1HAA-H.
T3 chain: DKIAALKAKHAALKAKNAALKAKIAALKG
Description: two-hybrid library CCmax.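 Note: natural log of median RNA to DNA barcode read ratio; higher means stronger binding.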 The settings on record: mean of both orientations.

Experiment [4] concerns the target T4, P2-AA-1HAA-I.
T4 chain: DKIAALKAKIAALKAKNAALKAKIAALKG
Description: two-hybrid library CCmax.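 Note: natural log of median RNA to DNA barcode read ratio; higher means stronger binding.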 The settings on record: mean of both orientations.

Experiment [5] has as its target T5, P2-AA-1HAA-R.
T5 chain: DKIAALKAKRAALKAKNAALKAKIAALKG
Put plainly: two-hybrid library CCmax.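 Note: natural log of median RNA to DNA barcode read ratio; higher means stronger binding.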 Conditions: mean of both orientations.

Experiment [6] has as its target T6, P2-AA-1HAA-S.
T6 chain: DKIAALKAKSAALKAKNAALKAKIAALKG
Put plainly: two-hybrid library CCmax.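 Note: natural log of median RNA to DNA barcode read ratio; higher means stronger binding.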 The settings on record: mean of both orientations.

For experiment [7], the target named is T7, P2-AA-1HAA-T.
T7 chain: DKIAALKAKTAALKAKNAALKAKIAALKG
Description: two-hybrid library CCmax. Conditions: mean of both orientations.

Experiment [8] deals with T8, P2-AA-1HAA-V.
T8 chain: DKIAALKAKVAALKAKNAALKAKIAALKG
Put plainly: two-hybrid library CCmax. The settings on record: mean of both orientations.

Experiment [9] addresses T9, P2-AA.
T9 chain: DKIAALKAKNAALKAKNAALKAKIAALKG
Description: two-hybrid library CCmax. Conditions: mean of both orientations.

In experiment [10] the target is T10, P12bHq.
T10 chain: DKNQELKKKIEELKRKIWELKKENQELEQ
Put plainly: two-hybrid library CCNG1.

In experiment [11] the target is T11, P1bHq.
T11 chain: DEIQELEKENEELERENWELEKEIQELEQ
Put plainly: two-hybrid library CCNG1.

The target of experiment [12] is T12, P2bHq.
T12 chain: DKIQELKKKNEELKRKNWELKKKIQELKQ
Put plainly: two-hybrid library CCNG1.

Experiment [13] concerns the target T13, P3bHq.
T13 chain: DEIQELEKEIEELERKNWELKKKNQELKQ
Put plainly: two-hybrid library CCNG1.

The target in experiment [14] is T14, P4bHq.
T14 chain: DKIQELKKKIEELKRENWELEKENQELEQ
Description: two-hybrid library CCNG1.

Experiment [15] addresses T15, P5bHq.
T15 chain: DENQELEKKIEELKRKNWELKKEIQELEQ
Description: two-hybrid library CCNG1.

Experiment [16] deals with T16, P6bHq.
T16 chain: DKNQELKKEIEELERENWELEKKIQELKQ
Description: two-hybrid library CCNG1.

Experiment [17] deals with T17, P7bHq.
T17 chain: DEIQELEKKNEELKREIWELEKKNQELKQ
Put plainly: two-hybrid library CCNG1.

Experiment [18] addresses T18, P8bHq.
T18 chain: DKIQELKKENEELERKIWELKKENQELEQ
Description: two-hybrid library CCNG1.

Experiment [19] deals with T19, P9bHq.
T19 chain: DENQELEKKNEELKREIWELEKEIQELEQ
Put plainly: two-hybrid library CCNG1.

In experiment [20] the target is T20, 4H1158-bA.
T20 chain: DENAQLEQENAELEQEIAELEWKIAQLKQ
Description: two-hybrid library CCNG1.

Experiment [21] addresses T21, 4H118-bA.
T21 chain: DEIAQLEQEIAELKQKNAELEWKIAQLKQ
Description: two-hybrid library CCNG1.

Experiment [22] deals with T22, 4H170-bA.
T22 chain: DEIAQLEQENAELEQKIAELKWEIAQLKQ
Description: two-hybrid library CCNG1.

Experiment [23] deals with T23, 4H1831-bA.
T23 chain: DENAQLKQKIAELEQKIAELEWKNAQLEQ
Description: two-hybrid library CCNG1.

Experiment [24] has as its target T24, 4H2253-bA.
T24 chain: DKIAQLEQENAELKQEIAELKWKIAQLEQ
Put plainly: two-hybrid library CCNG1.

The target in experiment [25] is T25, 4H2586-bA.
T25 chain: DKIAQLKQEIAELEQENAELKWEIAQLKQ
Description: two-hybrid library CCNG1.

For experiment [26], the target named is T26, 4H2627-bA.
T26 chain: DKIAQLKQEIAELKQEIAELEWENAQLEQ
Description: two-hybrid library CCNG1.

The target of experiment [27] is T27, 4H2673-bA.
T27 chain: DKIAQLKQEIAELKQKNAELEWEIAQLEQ
Description: two-hybrid library CCNG1.

In experiment [28] the target is T28, 4H2702-bA.
T28 chain: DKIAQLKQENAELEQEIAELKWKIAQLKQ
Put plainly: two-hybrid library CCNG1.

The target of experiment [29] is T29, 4H3010-bA.
T29 chain: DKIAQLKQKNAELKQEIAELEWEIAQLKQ
Description: two-hybrid library CCNG1.

In experiment [30] the target is T30, 4H3112-bA.
T30 chain: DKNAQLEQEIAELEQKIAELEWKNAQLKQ
Description: two-hybrid library CCNG1.

Experiment [31] concerns the target T31, 4H3427-bA.
T31 chain: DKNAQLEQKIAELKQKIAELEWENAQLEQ
Description: two-hybrid library CCNG1.

Experiment [32] deals with T32, 4H346-bA.
T32 chain: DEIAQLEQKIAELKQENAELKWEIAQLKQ
Put plainly: two-hybrid library CCNG1.

Experiment [33] addresses T33, 4H3926-bA.
T33 chain: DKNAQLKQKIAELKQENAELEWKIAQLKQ
Put plainly: two-hybrid library CCNG1.

Experiment [34] has as its target T34, 4H4073-bA.
T34 chain: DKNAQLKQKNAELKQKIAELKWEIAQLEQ
Description: two-hybrid library CCNG1.

The target of experiment [35] is T35, 4H457-bA.
T35 chain: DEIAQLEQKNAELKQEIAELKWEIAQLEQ
Put plainly: two-hybrid library CCNG1.

Experiment [36] concerns the target T36, 4H575-bA.
T36 chain: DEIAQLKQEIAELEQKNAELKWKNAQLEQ
Description: two-hybrid library CCNG1.

The target of experiment [37] is T37, 4H683-bA.
T37 chain: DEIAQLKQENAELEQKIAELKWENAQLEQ
Put plainly: two-hybrid library CCNG1.

Experiment [38] concerns the target T38, 4H754-bA.
T38 chain: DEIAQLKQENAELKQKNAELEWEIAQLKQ
Put plainly: two-hybrid library CCNG1.

Experiment [39] deals with T39, 4H780-bA.
T39 chain: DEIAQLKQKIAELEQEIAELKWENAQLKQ
Description: two-hybrid library CCNG1.

Experiment [40] concerns the target T40, 4H797-bA.
T40 chain: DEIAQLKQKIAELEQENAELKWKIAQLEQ
Put plainly: two-hybrid library CCNG1.

In experiment [41] the target is T41, 4H855-bA.
T41 chain: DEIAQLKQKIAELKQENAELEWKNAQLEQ
Put plainly: two-hybrid library CCNG1.

Experiment [42] deals with T42, 4H918-bA.
T42 chain: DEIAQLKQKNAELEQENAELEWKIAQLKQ
Put plainly: two-hybrid library CCNG1.

Experiment [43] has as its target T43, 4H953-bA.
T43 chain: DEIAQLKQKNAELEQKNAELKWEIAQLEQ
Description: two-hybrid library CCNG1.

For experiment [44], the target named is T44, 4H968-bA.
T44 chain: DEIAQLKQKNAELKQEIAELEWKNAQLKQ
Description: two-hybrid library CCNG1.

DEIAALEAELAALEAENAALEAEIAALEG [P1-AA-1HAA-L]: the interaction score in experiment [1] was found to be 1.71; in [2], 1.89; in experiment [3], 1.95; in experiment [4], 1.62; in [5], 1.98; in experiment [6] it was 1.77. Also, the interaction score in experiment [7] was determined as 1.93; in [8] it was 1.87; in experiment [9], 1.84.
Take DKNQELKKKIEELKRKIWELKKENQELEQ [P12bHq]: the interaction score in experiment [10] was -0.763; in experiment [11] it was -1.45; in [12] it was -0.425; in [13], -0.851; in experiment [14], 0.195; in [15], -0.597. The interaction score in experiment [16] was 0.286; in experiment [17] it was 0.639; in experiment [18], -0.489; in experiment [19], 1.15.
As to DENAQLEQENAELEQEIAELEWKIAQLKQ [4H1158-bA], the interaction score is -0.559 in experiment [20]; 0.591 in [21]; -1.67 in [22]; 0.132 in experiment [23]; 0.12 in experiment [24]; -0.706 in experiment [25]. Also, the interaction score in experiment [26] was 1.15; in [27] it was -0.0392; in experiment [28], 0.584; in experiment [29], 2.11; in [30], -0.0196; in experiment [31], 0.681. Moreover, the interaction score in experiment [32] is -0.31; in experiment [33], 0.769; in experiment [34], 2.53; in [35], 1.02; in experiment [36], 0.324; in experiment [37], -1.19. Moreover, the interaction score in [38] was -0.283; in experiment [39], 0.459; in [40], 0; in experiment [41], 0.0299; in [42] it was -0.069; in experiment [43] it was -0.12. This molecule also registered an interaction score in experiment [44] of 0.0766.
On to DEIAALEAETAALEAENAALEAEIAALEG [P1-AA-1HAA-T], for which the interaction score stood at 1.99 in [1]; 2.02 in experiment [2]; 2.07 in [3]; 2.05 in [4]; 1.93 in experiment [5]; 2.1 in [6]. The interaction score in experiment [7] was found to be 1.69; in [8], 2.02; in [9] it was 1.88.
